# Assay results reported in IntAct's records for PubMed 16319076.
# B1: Profilin-2 (Mus musculus), Q9JJV2-1 (parent)
# chain: MAGWQSYVDNLMCDGCCQEAAIVGYCDAKYVWAATAGGVFQSITPVEIDMIVGKDREGFFTNGLTLGAKKCSVIRDSLYVDGDCTMDIRTKSQGGEPTYNVAVGRAGRVLVFVMGKEGVHGGGLNKKAYSMAKYLRDSGF
# partner: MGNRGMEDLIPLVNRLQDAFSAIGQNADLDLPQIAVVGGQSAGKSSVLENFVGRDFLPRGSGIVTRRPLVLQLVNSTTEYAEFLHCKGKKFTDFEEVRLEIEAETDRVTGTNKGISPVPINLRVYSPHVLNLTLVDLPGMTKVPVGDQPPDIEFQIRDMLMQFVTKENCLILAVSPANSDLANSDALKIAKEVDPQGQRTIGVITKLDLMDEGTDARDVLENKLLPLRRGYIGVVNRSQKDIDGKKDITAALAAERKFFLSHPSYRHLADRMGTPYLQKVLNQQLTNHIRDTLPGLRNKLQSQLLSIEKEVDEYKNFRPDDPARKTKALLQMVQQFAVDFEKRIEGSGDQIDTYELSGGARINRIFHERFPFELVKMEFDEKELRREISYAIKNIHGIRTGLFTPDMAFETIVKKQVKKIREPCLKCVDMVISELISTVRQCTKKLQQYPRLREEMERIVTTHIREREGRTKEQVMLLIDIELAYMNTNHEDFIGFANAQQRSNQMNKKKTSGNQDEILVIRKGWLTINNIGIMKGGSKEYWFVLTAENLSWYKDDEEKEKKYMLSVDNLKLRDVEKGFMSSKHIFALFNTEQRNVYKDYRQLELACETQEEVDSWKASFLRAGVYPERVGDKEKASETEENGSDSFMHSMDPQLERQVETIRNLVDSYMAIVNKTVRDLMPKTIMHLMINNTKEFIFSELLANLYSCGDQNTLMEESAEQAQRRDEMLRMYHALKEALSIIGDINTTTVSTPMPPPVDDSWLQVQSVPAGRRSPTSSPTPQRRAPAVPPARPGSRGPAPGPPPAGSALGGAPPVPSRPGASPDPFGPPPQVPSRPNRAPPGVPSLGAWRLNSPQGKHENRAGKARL
# Variants of: B1
# Details: with dyn1_mouse Dnm1, P39053
row,effect of a mutation on the interaction,Variant
1,decreasing interaction,MAGWQSYVDNLMCDGCCQEAAIVGYCDAKYVWAATAGGVFQSITPVEIDMIVGKDREGFFTNGLTLGAKKCSVIRDSLYVDGDCTMDIRTKSQGGEPTYNVAVGRAGRVLVFVMGKEGVHGGGLNKKAYSMAKYLRDDGF [S138D]
